Source: paper PMC3963918, “CCHCR1 Interacts Specifically with the E2 Protein of Human Papillomavirus Type 16 on a Surface Overlapping BRD4 Binding” (PLoS ONE, 2014)

T1: HPV16 E2 protein fused to Gaussia luciferase fragment GL2 (human papillomavirus type 16, UniProt P03120 1-365)
T1 construct: source: 293 T cells, transfected (pSPICA-N2), in lysate
T1 sequence: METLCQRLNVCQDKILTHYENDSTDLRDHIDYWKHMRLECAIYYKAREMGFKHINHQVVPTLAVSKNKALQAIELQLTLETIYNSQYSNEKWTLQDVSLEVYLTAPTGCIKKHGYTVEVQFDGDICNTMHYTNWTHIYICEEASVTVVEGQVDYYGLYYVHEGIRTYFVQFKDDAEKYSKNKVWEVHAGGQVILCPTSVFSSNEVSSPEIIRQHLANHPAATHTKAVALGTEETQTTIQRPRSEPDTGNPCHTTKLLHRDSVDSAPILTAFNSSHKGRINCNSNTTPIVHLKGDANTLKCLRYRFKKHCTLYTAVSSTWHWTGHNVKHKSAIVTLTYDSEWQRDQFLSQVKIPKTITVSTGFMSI

B1: CCHCR1 (Coiled-Coil alpha HeliCal Rod protein 1), polypeptide from amino acid 137 to the stop codon, fused to Gaussia luciferase fragment GL1 (domain or fragment)
chain: KAGRAEAEGLRAALAGAEVVRKNLEEGSQRELEEVQRLHQEQLSSLTQAHEEALSSLTSKAEGLEKSLSSLETRRAGEAKELAEAQREAELLRKQLSKTQEDLEAQVTLVENLRKYVGEQVPSEVHSQTWELERQKLLETMQHLQEDRDSLHATAELLQVRVQSLTHILALQEEELTRKVQPSDSLEPEFTRKCQSLLNRWREKVFALMVQLKAQELEHSDSVKQLKGQVASLQEKVTSQSQEQAILQRSLQDKAAEVEVERMGAKGLQLELSRAQEARRRWQQQTASAEEQLRLVVNAVSSSQIWLETTMAKVEGAAAQLPSLNNRLSYAVRKVHTIRGLIARKLALAQLRQESCPLPPPVTDVSLELQQLREERNRLDAELQLSARLIQQEVGRAREQGEAERQQLSKVAQQLEQELQQTQESLASLGLQLEVARQGQQESTEEAASLRQELTQQQELYGQALQEKVAEVETRLREQLSDTERRLNEARREHAKAVVSLRQIQRRAAQEKERSQELRRLQEEARKEEGQRLARRLQELERDKNLMLATLQQEGLLSRYKQQRLLTVLPSLLDKKKSVVSSPRPPECSASAPVAAAVPTRESIKGSLSVLLDDLQDLSEAISKEEAVCQGDNLDRCSSSNPQMSS
notes: also called Pg8; SBP
B2: 3XFLAG-tagged CCHCR1, shorter E2-interacting isoform (amino acid 137 to the stop codon) (domain or fragment)
chain: B1 chain
notes: also called Flag-CCHCR1; 3XFLAG CCHCR1; source: 293 T cells, transfected (pCiNeo-3XF), in lysate

Assays:
[1] = target: T1, HPV16 E2 protein fused to Gaussia …; experiment: split reporter (BiFC, NanoBiT); details: partners not purified
[2] = target: T1, HPV16 E2 protein fused to Gaussia …; experiment: split reporter (BiFC, NanoBiT); GPCA competition: GL1 and GL2 partners plus a 3XFlag-tagged challenging protein (0.5 ug of each plasmid) in 293 T cells, 12-well plates, harvested 40 h after transfection; NLR relative to empty plasmid; details: partners not purified

Row | Binder | NLR (Normalized Luminescence Ratio) [1] | fold decrease of the NLR of HPV16 E2 with BRD4 in the presence of CCHCR1 [2]
1 | B1 | ~250 | –
2 | B2 | – | 5 fold
